Literature values as cited in patent US11033499B2, “Tablet formulation comprising a GLP-1 peptide and a delivery agent” (priority 2012, dated 2021).

Settings: published studies with SNAC and human GLP-1

For “human GLP-1: human GLP-1 given with SNAC in published studies”, the Tmax is listed as 20 to 30 min.
